Source: patent US20070020627
pKd: −log10 of the molar value.

Experiments:
[1] = test system: VP64-E2c (6-finger) (artificial); assay: cell_activity; conditions: HeLa luciferase
[2] = test system: SKD-E2c (6-finger) (artificial); assay: cell_activity; conditions: HeLa luciferase
[3] = test system: SKD-E2cJ15E2x (12-finger) (artificial); assay: cell_activity; conditions: HeLa luciferase
[4] = test system: E2cJ15E2x-VP64 (12-finger) (artificial); assay: cell_activity; conditions: HeLa luciferase
[5] = test system: E2x (6-finger) (artificial); conditions: stated as Km; assay not described
[6] = test system: E2c (6-finger) (artificial); conditions: stated as Km; assay not described

Substance: E2p luciferase reporter (erbB2 promoter)
- activity (fold activation) [1]: 78
- activity (fold repression) [2]: 36
- activity (fold repression) [3]: 8
- activity (fold activation) [4]: 45

Substance: ACCGGAGAAACCAGGGGA (double strand) [E2X target]
- pKd [5]: 7.82

Substance: GGGGCCGGAGCCGCAGTG (double strand) [E2c target]
- pKd [6]: 9.30
